Source: paper PMC10411902 (Science Advances, 2023)

Target: T1, BRCA1-associated protein 1 (BAP1), full-length human (residues 1 to 729) (human, UniProt Q92560 1-729)
T1 sequence: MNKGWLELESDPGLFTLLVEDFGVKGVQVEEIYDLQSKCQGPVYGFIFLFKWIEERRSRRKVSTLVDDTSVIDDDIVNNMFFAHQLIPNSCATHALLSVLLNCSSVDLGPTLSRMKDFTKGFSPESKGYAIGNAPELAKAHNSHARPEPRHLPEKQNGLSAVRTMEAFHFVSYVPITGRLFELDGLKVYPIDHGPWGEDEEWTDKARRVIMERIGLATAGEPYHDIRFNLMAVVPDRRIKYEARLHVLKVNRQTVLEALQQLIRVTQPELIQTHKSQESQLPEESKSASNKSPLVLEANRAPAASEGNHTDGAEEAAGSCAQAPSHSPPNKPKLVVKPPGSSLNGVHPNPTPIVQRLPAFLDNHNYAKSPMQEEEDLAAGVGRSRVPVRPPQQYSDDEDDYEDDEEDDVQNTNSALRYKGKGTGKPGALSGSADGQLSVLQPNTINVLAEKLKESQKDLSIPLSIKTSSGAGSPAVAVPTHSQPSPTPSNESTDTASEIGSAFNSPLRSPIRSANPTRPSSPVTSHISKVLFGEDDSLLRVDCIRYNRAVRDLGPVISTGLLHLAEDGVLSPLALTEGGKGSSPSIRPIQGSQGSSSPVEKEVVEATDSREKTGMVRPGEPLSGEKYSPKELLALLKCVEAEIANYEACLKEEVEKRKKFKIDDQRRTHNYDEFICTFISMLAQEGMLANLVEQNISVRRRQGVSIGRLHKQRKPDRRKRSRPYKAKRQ
Assay: cryo-EM structure

binding result: binds
B1: Deubiquitinase adaptor domain (DEUBAD) of additional sex comb-like 1 (ASXL1), residues 237 to 390 (domain or fragment)
chain: PATGQMKRNRGEEIDFETPGSILVNTNLRALINSRTFHALPSHFQQQLLFLLPEVDRQVGTDGLLRLSSSALNNEFFTHAAQSWRERLADGEFTHEMQVRIRQEMEKEKKVEQWKEKFFEDYYGQKLGLTKEESLQQNVGQEEAEIKSGLCVPG
